# From paper PMC5300068 (2017)
# Target: the molecule itself
# Test: AUC
row,Protein,Kd [nM]
1,MASP-1 (protein) HTVELNNMFGQIQSPGYPDSYPSDSEVTWNITVPDGFRIKLYFMHFNLESSYLCEYDYVKVETEDQVLATFCGRETTDTEQTPGQEVVLSPGSFMSITFRSDFSNEERFTGFDAHYMAVDVDECKEREDEELSCDHYCHNYIGGYYCSCRFGYILHTDNRTCRVECSDNLFTQRTGVITSPDFPNPYPKSSECLYTIELEEGFMVNLQFEDIFDIEDHPEVPCPYDYIKIKVGPKVLGPFCGEKAPEPISTQSHSVLILFHSDNSGENRGWRLSYRAAGNECPELQPPVHGKIEPSQAKYFFKDQVLVSCDTGYKVLKDNVEMDTFQIECLKDGTWSNKIPTCKIVDCRAPGELEHGLITFSTRNNLTTYKSEIKYSCQEPYYKMLNNNTGIYTCSAQGVWMNKVLGRSLPTCLPVCGLPKFSRKLMARIFNGRPAQKGTTPWIAMLSHLNGQPFCGGSLLGSSWIVTAAHCLHQSLDPEDPTLRDSDLLSPSDFKIILGKHWRLRSDENEQHLGVKHTTLHPQYDPNTFENDVALVELLESPVLNAFVMPICLPEGPQQEGAMVIVSGWGKQFLQRFPETLMEIEIPIVDHSTCQKAYAPLKKKVTRDMICAGEKEGGKDACAGDSGGPMVTLNRERGQWYLVGTVSWGDDCGKKDRYGVYSYIHHNKDWIQRVTGVRN,< 10
2,MASP-2 (protein) TPLGPKWPEPVFGRLASPGFPGEYANDQERRWTLTAPPGYRLRLYFTHFDLELSHLCEYDFVKLSSGAKVLATLCGQESTDTERAPGKDTFYSLGSSLDITFRSDYSNEKPFTGFEAFYAAEDIDECQVAPGEAPTCDHHCHNHLGGFYCSCRAGYVLHRNKRTCSALCSGQVFTQRSGELSSPEYPRPYPKLSSCTYSISLEEGFSVILDFVESFDVETHPETLCPYDFLKIQTDREEHGPFCGKTLPHRIETKSNTVTITFVTDESGDHTGWKIHYTSTAQPCPYPMAPPNGHVSPVQAKYILKDSFSIFCETGYELLQGHLPLKSFTAVCQKDGSWDRPMPACSIVDCGPPDDLPSGRVEYITGPGVTTYKAVIQYSCEETFYTMKVNDGKYVCEADGFWTSSKGEKSLPVCEPVCGLSARTTGGRIYGGQKAKPGDFPWQVLILGGTTAAGALLYDNWVLTAAHAVYEQKHDASALDIRMGTLKRLSPHYTQAWSEAVFIHEGYTHDAGFDNDIALIKLNNKVVINSNITPICLPRKEAESFMRTDDIGTASGWGLTQRGFLARNLMYVDIPIVDHQKCTAAYEKPPYPRGSVTANMLCAGLESGGKDSCRGDSGGALVFLDSETERWFVGGIVSWGSMNCGEAGQYGVYTKVINYIPWIENIISDF,< 10
